T1: Par complex (Drosophila melanogaster, UniProt O97111 1-351; A1Z9X0 1-606)
T1 construct: atypical PKC (aPKC), Drosophila melanogaster, residues 1-606, from pCMV aPKC; also called Par-6/aPKC; intact Par complex
T1 sequence (looked up) 1: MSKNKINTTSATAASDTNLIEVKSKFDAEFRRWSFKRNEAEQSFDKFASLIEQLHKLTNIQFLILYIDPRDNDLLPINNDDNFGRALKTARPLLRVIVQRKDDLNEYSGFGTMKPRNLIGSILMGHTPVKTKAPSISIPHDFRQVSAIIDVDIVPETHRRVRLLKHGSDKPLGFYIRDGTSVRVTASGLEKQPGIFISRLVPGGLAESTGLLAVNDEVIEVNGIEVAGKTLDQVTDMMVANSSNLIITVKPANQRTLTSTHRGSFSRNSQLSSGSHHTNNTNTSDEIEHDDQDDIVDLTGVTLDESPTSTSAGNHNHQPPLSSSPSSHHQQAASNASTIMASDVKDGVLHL
T1 sequence (looked up) 2: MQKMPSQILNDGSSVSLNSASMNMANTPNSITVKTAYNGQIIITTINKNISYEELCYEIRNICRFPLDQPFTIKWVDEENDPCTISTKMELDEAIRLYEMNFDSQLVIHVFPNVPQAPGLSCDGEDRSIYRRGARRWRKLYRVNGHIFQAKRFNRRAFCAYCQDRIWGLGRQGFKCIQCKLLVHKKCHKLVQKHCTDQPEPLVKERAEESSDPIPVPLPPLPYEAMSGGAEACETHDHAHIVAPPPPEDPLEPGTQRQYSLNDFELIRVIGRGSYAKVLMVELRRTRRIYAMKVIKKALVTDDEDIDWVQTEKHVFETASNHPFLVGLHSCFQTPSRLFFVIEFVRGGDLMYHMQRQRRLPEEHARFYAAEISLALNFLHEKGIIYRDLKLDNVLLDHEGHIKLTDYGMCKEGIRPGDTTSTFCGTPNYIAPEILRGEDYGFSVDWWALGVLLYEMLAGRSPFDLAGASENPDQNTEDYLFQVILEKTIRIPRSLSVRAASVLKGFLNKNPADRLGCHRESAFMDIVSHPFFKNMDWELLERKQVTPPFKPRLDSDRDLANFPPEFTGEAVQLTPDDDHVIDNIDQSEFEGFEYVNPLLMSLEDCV

B1: GST-Cdc42^Q61L (natural protein)
chain: not shown
notes: Cdc42, Drosophila melanogaster, residues 1-191 with Q61L, from pGEX; Nucleotide state is not described; Q61L is called constitutively active; also called GST-fused Cdc42Q61L; solid phase Cdc42^Q61L; source: E. coli BL21-DE3, lysate adsorbed to glutathione resin and washed; not shown: GST, N-terminal, kept

How the values were obtained:
Details in all cases: both partners purified
[1] = biological target: T1, Par complex; experiment: pull-down; GST-fused protein on glutathione resin (from bacterial lysate, washed 4x); soluble purified proteins added, 60 min at room temperature; 20 mM Hepes pH 7.5, 100 mM NaCl, 5 mM MgCl2, 0.5% Tween-20, 1 mM DTT, 200 uM ATP; Coomassie-stained gel
[2] = biological target: B1; experiment: supernatant depletion; Cdc42 with Par-6 CRIB-PDZ (Figure S1); the text does not say which of the two was on the resin; buffer as for the other supernatant depletion assays
[3] = biological target: T1, Par complex; experiment: supernatant depletion; GST-Cdc42^Q61L on GSH resin (ligand), soluble Par complex (receptor), 60 min at room temperature; 20 mM Hepes pH 7.5, 100 mM NaCl, 5 mM MgCl2, 0.5% Tween-20, 1 mM DTT, 200 uM ATP; KD from the fraction depleted at one dilution, in sextuplicate
[4] = biological target: T1, Par complex; experiment: supernatant depletion; MBP-Par-3 PDZ1-APM on amylose resin (ligand), soluble Par complex (receptor), 10 min at room temperature; 20 mM Hepes pH 7.5, 100 mM NaCl, 5 mM MgCl2, 0.5% Tween-20, 1 mM DTT, 200 uM ATP; KD from the fraction depleted at one dilution, in sextuplicate

Chain of GST-Cdc42^Q61L (P40793 whole entry Q61L): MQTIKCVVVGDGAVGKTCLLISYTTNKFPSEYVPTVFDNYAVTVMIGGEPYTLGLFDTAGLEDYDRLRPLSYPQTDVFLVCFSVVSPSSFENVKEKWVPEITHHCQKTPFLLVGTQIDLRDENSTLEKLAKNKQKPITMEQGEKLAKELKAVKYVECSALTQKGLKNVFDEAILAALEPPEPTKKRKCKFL

binding result [1]	Binder	other results
binds	MBP-Par-3 PDZ1-APM ΔPDZ1 (domain or fragment, Drosophila melanogaster, UniProt O96782 393-987, looked up, Par-3 (Bazooka), Drosophila melanogaster, residues 393-987, from pMAL Par-3 393-987-His; source: E. coli BL21-DE3, His-purified) LRGDRNRRQQRDSKVADMVEVATVSPTRKPHAAPVGTSLQVANTRKLGRKIQIMLKKGPNGLGFSVTTRDNPAGAHCPIYIKNILPRGAAIEDGRLKPGDRLLEVDGTPMTGKTQTDVVAILRGMPAGATVRIVVSRQQELAEQADQPAEKSAGVAVAPSVAPPAVPAAAAPAPPIPVQKSSSARSLFTHQQQSQLNESQHFIDAGSESAASNDSLPPSSNSWHSREELTLHIPVHDTEKAGLGVSVKGKTCSNLNASGSSASSGSNGLMKHDGDLGIFVKNVIHGGAASRDGRLRMNDQLLSVNGVSLRGQNNAEAMETLRRAMVNTPGKHPGTITLLVGRKILRSASSSDILDHSNSHSHSHSNSSGGSNSNGSGNNNNSSSNASDNSGATVIYLSPEKREQRCNGGGGGGSAGNEMNRWSNPVLDRLTGGICSSNSAQPSSQQSHQQQPHPSQQQQQQRRLPAAPVCSSAALRNESYYMATNDNWSPAQMHLMTAHGNTALLIEDDAEPMSPTLPARPHDGQHCNTSSANPSQNLAVGNQGPPINTVPGTPSTSSNFDATYSSQLSLETNSGVEHFSRDALGRRSISEKHHA	–
binds	His-Par-3 PDZ2 (domain or fragment, Drosophila melanogaster, UniProt O96782 444-533, looked up, Par-3 (Bazooka), Drosophila melanogaster, PDZ2, residues 444-533, from pET19; source: E. coli BL21-DE3, His-purified) QIMLKKGPNGLGFSVTTRDNPAGAHCPIYIKNILPRGAAIEDGRLKPGDRLLEVDGTPMTGKTQTDVVAILRGMPAGATVRIVVSRQQEL	–
–	His-Par-6 CRIB-PDZ (domain or fragment, Drosophila melanogaster, UniProt O97111 130-255, looked up, Par-6, Drosophila melanogaster, CRIB-PDZ, residues 130-255, from pBH; chosen because the methods name GST-Cdc42^Q61L as the solid phase; source: E. coli BL21-DE3, His-purified) KTKAPSISIPHDFRQVSAIIDVDIVPETHRRVRLLKHGSDKPLGFYIRDGTSVRVTASGLEKQPGIFISRLVPGGLAESTGLLAVNDEVIEVNGIEVAGKTLDQVTDMMVANSSNLIITVKPANQR	Kd [2]: 2300 nM
–	B1	Kd [3]: 5400 nM
binds	His-Par-3 BR-PDZ2 (domain or fragment, Drosophila melanogaster, UniProt O96782 426-533, looked up, Par-3 (Bazooka), Drosophila melanogaster, basic region and PDZ2, residues 426-533, from pET19; source: E. coli BL21-DE3, His-purified) PVGTSLQVANTRKLGRKIQIMLKKGPNGLGFSVTTRDNPAGAHCPIYIKNILPRGAAIEDGRLKPGDRLLEVDGTPMTGKTQTDVVAILRGMPAGATVRIVVSRQQEL	–
binds	MBP-Par-3 PDZ1-APM ΔPDZ3 (domain or fragment, Drosophila melanogaster, UniProt O96782 309-987, looked up, Par-3 (Bazooka), Drosophila melanogaster, residues 309-987 with 616-741 deleted, from pMAL Par-3 309-987 Δ616-741-His; source: E. coli BL21-DE3, His-purified) DGEMLLIINEYGSPLGLTALPDKEHGGGLLVQHVEPGSRAERGQLRRDDRILEINGIKLIGLTESQVQEQLRRALESSELRVRVLRGDRNRRQQRDSKVADMVEVATVSPTRKPHAAPVGTSLQVANTRKLGRKIQIMLKKGPNGLGFSVTTRDNPAGAHCPIYIKNILPRGAAIEDGRLKPGDRLLEVDGTPMTGKTQTDVVAILRGMPAGATVRIVVSRQQELAEQADQPAEKSAGVAVAPSVAPPAVPAAAAPAPPIPVQKSSSARSLFTHQQQSQLNESQHFIDAGSESAASNDSLPPSSNSWSSDILDHSNSHSHSHSNSSGGSNSNGSGNNNNSSSNASDNSGATVIYLSPEKREQRCNGGGGGGSAGNEMNRWSNPVLDRLTGGICSSNSAQPSSQQSHQQQPHPSQQQQQQRRLPAAPVCSSAALRNESYYMATNDNWSPAQMHLMTAHGNTALLIEDDAEPMSPTLPARPHDGQHCNTSSANPSQNLAVGNQGPPINTVPGTPSTSSNFDATYSSQLSLETNSGVEHFSRDALGRRSISEKHHA	–
–	MBP-Par-3 PDZ1-APM (domain or fragment, Drosophila melanogaster, UniProt O96782 309-987, looked up, Par-3 (Bazooka), Drosophila melanogaster, residues 309-987 (PDZ1 to the aPKC phosphorylation motif), from pMAL Par-3 309-987-His; also called MBP-Par-3 PDZ1-APM-His; Bazooka; source: E. coli BL21-DE3; His-purified (soluble phase) or lysate adsorbed to amylose resin and washed (solid phase); not shown: MBP, N-terminal, kept) DGEMLLIINEYGSPLGLTALPDKEHGGGLLVQHVEPGSRAERGQLRRDDRILEINGIKLIGLTESQVQEQLRRALESSELRVRVLRGDRNRRQQRDSKVADMVEVATVSPTRKPHAAPVGTSLQVANTRKLGRKIQIMLKKGPNGLGFSVTTRDNPAGAHCPIYIKNILPRGAAIEDGRLKPGDRLLEVDGTPMTGKTQTDVVAILRGMPAGATVRIVVSRQQELAEQADQPAEKSAGVAVAPSVAPPAVPAAAAPAPPIPVQKSSSARSLFTHQQQSQLNESQHFIDAGSESAASNDSLPPSSNSWHSREELTLHIPVHDTEKAGLGVSVKGKTCSNLNASGSSASSGSNGLMKHDGDLGIFVKNVIHGGAASRDGRLRMNDQLLSVNGVSLRGQNNAEAMETLRRAMVNTPGKHPGTITLLVGRKILRSASSSDILDHSNSHSHSHSNSSGGSNSNGSGNNNNSSSNASDNSGATVIYLSPEKREQRCNGGGGGGSAGNEMNRWSNPVLDRLTGGICSSNSAQPSSQQSHQQQPHPSQQQQQQRRLPAAPVCSSAALRNESYYMATNDNWSPAQMHLMTAHGNTALLIEDDAEPMSPTLPARPHDGQHCNTSSANPSQNLAVGNQGPPINTVPGTPSTSSNFDATYSSQLSLETNSGVEHFSRDALGRRSISEKHHA	Kd [4]: 600 nM
binds	GST-Par-3 PDZ3 (domain or fragment, Drosophila melanogaster, UniProt O96782 616-741, looked up, Par-3 (Bazooka), Drosophila melanogaster, PDZ3, residues 616-741, from pGEX; source: E. coli BL21-DE3, lysate adsorbed to glutathione resin and washed; not shown: GST, N-terminal, kept) HSREELTLHIPVHDTEKAGLGVSVKGKTCSNLNASGSSASSGSNGLMKHDGDLGIFVKNVIHGGAASRDGRLRMNDQLLSVNGVSLRGQNNAEAMETLRRAMVNTPGKHPGTITLLVGRKILRSAS	–

— article PMC9793311, “Negative cooperativity underlies dynamic assembly of the Par complex regulators Cdc42 and Par-3” (The Journal of Biological Chemistry, 2022)
